Measurements taken from patent US20150238641A1 (BRITISH COLUMBIA CANCER AGENCY BRANCH, published 2015).
Where “and” joins values, the source holds several entries; their conditions need not be identical. Identical values can stand only once. Where no end group is shown, it is not given here. [ ]: non-standard residue; d: D form. The star is where a group is joined. DOTA = O=C(O)CN1CCN(CC(=O)O)CCN(CC(=O)*)CCN(CC(=O)O)CC1; Hyp = O=C(O)[C@@H]1C[C@@H](O)CN1; Cha = N[C@@H](CC1CCCCC1)C(=O)O; Ahx = NCCCCCC(=O)O

T1: human bradykinin B1 receptor (human, UniProt P46663 1-353)
T1 construct: whole, on cells; Assays were run on cell membrane preparations (50 ug/well), not on intact cells; HEK293T::GFP::hB1R membranes appear only in the saturation assay; also called hB1R; BDKRB1
T1 sequence (looked up): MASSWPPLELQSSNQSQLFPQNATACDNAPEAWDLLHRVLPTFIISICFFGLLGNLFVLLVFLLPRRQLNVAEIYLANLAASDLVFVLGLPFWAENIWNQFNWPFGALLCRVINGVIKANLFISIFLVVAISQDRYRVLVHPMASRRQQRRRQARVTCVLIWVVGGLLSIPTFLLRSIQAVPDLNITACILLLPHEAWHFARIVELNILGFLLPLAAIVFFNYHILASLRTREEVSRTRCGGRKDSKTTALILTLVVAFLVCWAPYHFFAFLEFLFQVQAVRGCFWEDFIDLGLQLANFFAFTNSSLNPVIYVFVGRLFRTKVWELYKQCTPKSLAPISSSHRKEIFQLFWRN


Assays:
[1] = target: T1, human bradykinin B1 receptor; experiment: average Ki of the competitive radioligand binding assays on hB1R membranes
Procedure: (§1) Competitive Binding Assays: Assays were performed using 96-well MultiScreenₘₛ with glass fiber filter and PVDF support obtained from Millipore Corp, Billerica, Mass. (cat. no. MSFB N6B, lot no. R8AN42424). Wells of the MultiScreen plate were pre-soaked with 0.5% of cold Poly(ethyleneimine) (PEI) (cat. no. P3143, Sigma-Aldrich, St. Louis, Mo.) for 30 minutes. Afterward, wells were washed once with 50 mM of Tris-HCl pH 7.4. Total volume per wells was 200 μL. […] The MultiScreen plate was then incubated at 27° C. for 15 minutes with agitation at 300 rpm. The assay was stopped by suctioning the reaction solution through the bottom PVDF membrane filter and discarded. The membranes were washed 7x with 150 μL/well of cold 50 mM Tris-HCl pH 7.4. Radioactivity was counted using 1450 MicroBeta TriLux—Microplate Scintillation and Luminescence Counter (Perkin Elmer Inc., Shelton, Conn.).

[2] = target: T1, human bradykinin B1 receptor; experiment: assay not described at this place; competitive binding presumed
[3] = target: T1, human bradykinin B1 receptor; experiment: competitive radioligand binding; hot ligand BK-ANT-ARC 4.6 nM; CHO-K1 hB1R membranes
Procedure: as §1

[4] = target: T1, human bradykinin B1 receptor; experiment: average Ki of the competitive radioligand binding assays on hB1R membranes (single assay)
Procedure: as §1

[5] = target: T1, human bradykinin B1 receptor; experiment: competitive radioligand binding; hot ligand BK-AG-ARC 12.5 nM; CHO-K1 hB1R membranes
Procedure: as §1

[6] = target: T1, human bradykinin B1 receptor; experiment: competitive radioligand binding; hot ligand BK-ANT-ARC 12.5 nM; CHO-K1 hB1R membranes
Procedure: as §1

[7] = target: T1, human bradykinin B1 receptor; experiment: competitive radioligand binding; hot ligand BK-ANT-ARC 4.5 nM; CHO-K1 hB1R membranes
Procedure: as §1

[8] = target: T1, human bradykinin B1 receptor; experiment: saturation radioligand binding, membranes of HEK293T::GFP::hB1R cells
Procedure: (§2) Assays were done using 96-well MultiScreenHTS with glass fiber filter and PVDF support obtained from Millipore Corp, Billerica, Mass. (cat. no. MSFB N6B, lot no. R8AN42424). Wells of the MultiScreen plate were pre-soaked with 0.5% of cold Poly(ethyleneimine) (PEI) (cat. no. P3143, Sigma-Aldrich, St. Louis, Mo.) for 30 minutes. Afterward, wells were washed once with 50 mM of Tris-HCl pH 7.4. Total volume per wells was 200 μL. […] The assay buffer contained 50 mM of Tris-HCl pH 7.4 and 5 mM of MgCl₂. The Multiscreen plate was incubated at 27° C. for 15 minutes. The assay was stopped by suctioning the reaction solution through the PVDF membrane filter, and washing the filter with ice cold 50 mM Tris-HCl pH 7.4. Scintillation fluid was added to each well, and the radioactivity was measured using a MicroBeta Trilux Microplate Scintillation and Luminescence Counter (Perkin Elmer Inc., Shelton, Conn.). Graphpad Prism 5 was used to calculate the affinity constant (Kd) and the receptor concentration (Bmax).

[9] = target: T1, human bradykinin B1 receptor; experiment: saturation radioligand binding, CHO-K1::hB1R against HEK293T::GFP::hB1R membranes
Procedure: as §2

[10] = target: T1, human bradykinin B1 receptor; experiment: saturation radioligand binding, membranes of CHO-K1::hB1R cells
Procedure: as §2

Row | Ki [1] | Ki [3] | Binder | further results
1 | 2.55 nM | 2.47 nM and 3.57 nM and 2.23 nM and 1.93 nM | {DOTA-Ahx}-KRPPGFSPL (also: Ga complex of DOTA (natGa in assays, 68Ga in vivo), also called P03083) [Peptide 4: Ga-DOTA-Ahx-Lys-Arg-Pro-Pro-Gly-Phe-Ser-Pro-Leu] | Ki [2]: 12.4 nM
2 | – | 0.49 nM | H-KRPPGFSPL-OH (Unlabelled control B1R antagonist bought from Bachem; also called Lys[Leu^8]-des-Arg^9-BK; [Leu^9,des-Arg^10]kallidin) [H-Lys-Arg-Pro-Pro-Gly-Phe-Ser-Pro-Leu-OH (BK-ANT, Bachem H-2582)] | –
3 | 16 nM | 13.3 nM and 17.1 nM and 17.6 nM and 16 nM | KRPXGXSPL (N-terminal Ga-DOTA-PEG2- (PEG2 = 3-[2-(2-aminoethoxyl)ethoxy]propanoic acid); Hyp at position 4; Cha at position 6, 68Ga-labelled in the in vivo imaging; also called Ga-68 Peptide 3) [Peptide 3: Ga-DOTA-PEG2-Lys-Arg-Pro-Hyp-Gly-Cha-Ser-Pro-Leu] | –
4 | 27.8 nM | 22.3 nM and 29 nM and 32 nM | KRPXGXSPL (N-terminal Ga-DOTA-Ahx-; Hyp at position 4; Cha at position 6) [Peptide 10: Ga-DOTA-Ahx-Lys-Arg-Pro-Hyp-Gly-Cha-Ser-Pro-Leu] | –
5 | 25.4 nM | 19.7 nM and 29.1 nM and 27.5 nM | KRPXGXSPF (N-terminal Ga-DOTA-Ahx-; Hyp at position 4; Cha at position 6; D-Phe at position 9, 68Ga-labelled in vivo) [Peptide 12: Ga-DOTA-Ahx-Lys-Arg-Pro-Hyp-Gly-Cha-Ser-Pro-(D-Phe)] | –
6 | – | – | KRPXGXSPF (N-terminal DTPA-Ahx- (printed 'DPA-Ahx' in Table 4); Hyp at position 4; Cha at position 6; D-Phe at position 9) [Peptide 2: DTPA-Ahx-Lys-Arg-Pro-Hyp-Gly-Cha-Ser-Pro-(D-Phe)] | Ki [4]: 131 nM; Ki [5]: 131 nM
7 | 32.2 nM | – | KRPXGXSPF (N-terminal D-Pra-Ahx- (D-propargylglycine, 6-aminohexanoic acid); Hyp (hydroxyproline) at position 4; Cha (beta-cyclohexylalanine) at position 6; D-Phe at position 9, Agonist-derived probe) [Peptide 1: D-Pra-Ahx-Lys-Arg-Pro-Hyp-Gly-Cha-Ser-Pro-(D-Phe)] | Ki [6]: 74.6 nM; Ki [5]: 10.9 nM
8 | 11.4 nM | 13.5 nM | {DOTA}-GGKRP[Hyp]G[Cha]SPL (also: Ga loaded in DOTA, 68Ga-labelled in vivo) [Peptide 8: Ga-DOTA-Gly-Gly-Lys-Arg-Pro-Hyp-Gly-Cha-Ser-Pro-Leu] | Ki [7]: 8.63 nM and 12.1 nM
9 | – | – | KRPPGFSPL (also: 3,4-prolyl-3,4-3H(N) tritium label on proline, Radioligand from American Radiolabeled Chemicals (ART1609) or Perkin Elmer (NET1096250UC); also called BK-ANT-ARC; BK-ANT-PE) [[3,4-prolyl-3,4-3H(N)] [Leu^9, Des-Arg^10]Kallidin] | Kd [8]: 3.46 nM; fold lower Kd in CHO-K1::hB1R cells than in HEK293T::GFP::hB1R cells [9]: 6 fold; Kd [10]: 0.574 nM
